Values quoted from earlier work as cited in PMC4785862.
Where two headings read alike, the source gives them in different places.

Tests used:
IL-8 (Homo sapiens) [1] = biological target: IL-8 (Homo sapiens) (UniProt P10145)
IL-8 (Homo sapiens) [2] = biological target: IL-8 (Homo sapiens) (UniProt P10145); remark: listed apart in the source

Chain of IL-8 (Homo sapiens) (P10145 28-99): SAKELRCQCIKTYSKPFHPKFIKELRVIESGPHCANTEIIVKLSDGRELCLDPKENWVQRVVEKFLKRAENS
Chain of CXCR2 (P25025 whole entry): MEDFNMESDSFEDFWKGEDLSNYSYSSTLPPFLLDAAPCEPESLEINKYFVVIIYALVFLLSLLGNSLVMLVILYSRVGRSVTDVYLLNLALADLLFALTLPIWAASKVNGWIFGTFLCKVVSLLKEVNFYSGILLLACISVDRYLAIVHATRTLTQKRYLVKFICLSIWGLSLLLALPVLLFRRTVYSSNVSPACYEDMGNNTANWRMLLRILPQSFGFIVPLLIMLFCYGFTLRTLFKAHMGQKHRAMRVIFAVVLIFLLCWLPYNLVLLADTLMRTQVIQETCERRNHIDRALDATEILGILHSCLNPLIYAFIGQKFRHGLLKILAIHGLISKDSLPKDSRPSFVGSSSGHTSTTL
Chain of CXCR1 (P25024 whole entry): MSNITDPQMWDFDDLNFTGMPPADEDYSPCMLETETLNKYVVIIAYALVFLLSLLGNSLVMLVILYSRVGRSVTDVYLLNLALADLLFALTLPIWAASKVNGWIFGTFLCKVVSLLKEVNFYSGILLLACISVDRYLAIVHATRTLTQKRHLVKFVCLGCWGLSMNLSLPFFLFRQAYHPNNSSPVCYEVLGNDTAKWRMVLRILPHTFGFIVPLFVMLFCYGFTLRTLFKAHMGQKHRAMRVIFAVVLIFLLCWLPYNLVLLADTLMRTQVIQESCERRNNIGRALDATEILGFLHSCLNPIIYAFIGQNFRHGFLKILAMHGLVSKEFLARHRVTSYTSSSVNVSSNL

Row | Kd (IL-8 (Homo sapiens) [1]) | Kd (IL-8 (Homo sapiens) [2]) | Substance
1 | 2.5 nM |  | CXCR2 (from UniProt P25025)
2 |  | 5 nM | CXCR1 (from UniProt P25024)
